The series deals with MS2 coat protein. The series is described as follows: apparent KD of MS2 coat protein; designed switch direction (-1 OFF switch, 1 ON switch): -1; higher = weaker reporter binding. The method in brief: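 RNA switches sharing common flanks were transcribed by stalled E. coli RNA polymerase on Illumina chips. A doubling series of SNAP-549-labelled MS2 coat protein, from 0.7 or 1.5 nM to 3 µM, was applied in Tris-HCl pH 7.5 buffer with KCl, MgCl2, BSA, DTT, tRNA and Tween-20. Each step lasted 0.8–1.5 h at the bottom of the series and 10–20 min at the top. Normalised cluster fluorescence was curve-fitted, giving apparent KD as the per-design median over clusters.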

[1] abbreviates: Eterna round: R95, input ligand: microRNA oligo, concentration not stated.
The mark [2] stands for this setting: Eterna round: R95, input ligand: FMN 200 uM.
Setting [3] is: Eterna round: R95, input ligand: none.
The mark [4] stands for this setting: input ligand: microRNA oligo, concentration not stated.

Take “GAUCUGACAGGAUAUACAUGAGGAUCACCCAUGUGCGAGCUAGCGAAAGCUAGCUUAGGUAGAAGGGUCAGAUC [Ex3 dot plot directed v3] (puzzle: Exclusion 3)”: the “apparent KD of MS2 coat protein” value under setting [1] is 10.7 nM.
Consider “GAUGGAGAGCAGGAUAUCUUGGGUAAGCAUCAUAGAGAAGGGCUCACAUGAGGAUCACCCAUGUGGUCCUAGAA [Ateedza] (puzzle: Exclusion 6)”, for which the “apparent KD of MS2 coat protein” value is 30.7 nM under setting [2], 16.2 nM under setting [1] and 14.9 nM under setting [3].
Take “GAUUAAUUAAUUAAUUAAUACAUGAGGAUCACCCAUGUAAUUUAAGAUCCUUAUACAAGCUUUGAUCUCGUAAUUAA [Stov1/4-A3] (Eterna round: R97, puzzle: Sensor, turn-off variant 1)”: the “apparent KD of MS2 coat protein” value amounted to 120 nM (input ligand: FMN 200 uM) and 120 nM (input ligand: none).
As to “GAUUAAUUAAUUAAUUAAUACAUGAGGAUCACCCAUGUAAUUUAAGAUCCUUAUACAAGCUUUGAUCUCGUCUUAUA [Stov1/5-A2] (Eterna round: R97, puzzle: Sensor, turn-off variant 1)”, the “apparent KD of MS2 coat protein” value was 163 nM (input ligand: FMN 200 uM) and 159 nM (input ligand: none).
Regarding “GAUUAUGCGAGCUUUAGGGACAUGAGGAUCACCCAUGUUCGUCUUAUUAAUCUAGGUGCACUAACAUACCUAAAUCU [JMF 32] (puzzle: Sensor v3, turn-off variant 1)”, the “apparent KD of MS2 coat protein” value by setting is: under setting [2], 21.9 nM; under setting [1], 39.4 nM; under setting [3], 21.7 nM.
On to “GAUUAUGCGAGCUUUAGGGACAUGAGGAUCACCCAUGUUCGUCUUAUUAGUCUAAGUACACUGACAUACCUAAAUCU [JMF 61] (puzzle: Sensor v3, turn-off variant 1)”, for which the “apparent KD of MS2 coat protein” value is 13.3 nM under setting [2], 14.2 nM under setting [1] and 12.4 nM under setting [3].
For the sequence “GAUUAUGCGAGCUUUAGGGACAUGAGGAUCACCCAUGUUCGUCUUAUUGGUCUAGGUACACUAACAUACCUAAAUCU [JMF 19] (puzzle: Sensor v3, turn-off variant 1)”, the “apparent KD of MS2 coat protein” value by setting is: under setting [2], 20.4 nM; under setting [1], 38.9 nM; under setting [3], 21.3 nM.
The matching figures for “GAUUAUGCGAGCUUUAGGGACAUGAGGAUCACCCAUGUUCGUCUUAUUGGUCUAGGUGCACUGACAUACCUAAAUCU [JMF 91] (puzzle: Sensor v3, turn-off variant 1)”: 20.3 nM, 34.9 nM and 20.5 nM.
As to “GAUUGACAUGAGGAUCACCCAUGUGAGGAUAUCGGCCGGACCUUGUUAGCUUCCAUCGCGAGAAGGCACAUAGG [Exclusion 1 V32] (puzzle: Exclusion 1)”, the “apparent KD of MS2 coat protein” value under setting [1] amounted to 25.2 nM.
Turning to “GAUUGACAUGAGGAUCACCCAUGUGAGGAUAUCGGCUGGACCGUGUUGGCUUCCGUCUCGAGAAGGCGCAUAGG [Exclusion 1 V43] (Eterna round: R96, puzzle: Exclusion 1)”, the “apparent KD of MS2 coat protein” value turned out to be 43.5 nM (input ligand: FMN 200 uM), 23.9 nM under setting [4] and 26.8 nM (input ligand: none).
Consider “GAUUGACAUGAGGAUCACCCAUGUGAGGAUAUCGGCUGGACCGUGUUGGCUUCCGUCUCGAGAAGGCGCAUAGG [Exclusion 1 V43] (puzzle: Exclusion 1)”, for which the “apparent KD of MS2 coat protein” value runs as follows: under setting [2], 137 nM; under setting [1], 39.7 nM; under setting [3], 44.4 nM.
On to “GAUUGAGCUGUUAGGAUAUCCGCAGGCCGCCUGGAGGAGAAGGAACAUGAGGAUCACCCAUGUGCACGGGAGGC [Xemaesti] (Eterna round: R97, puzzle: Brourd's mod of Exclusion 4)”, for which the “apparent KD of MS2 coat protein” value (input ligand: FMN 200 uM) was found to be 13.4 nM and the “apparent KD of MS2 coat protein” value (input ligand: none) worked out at 15.8 nM.
With “GCAAAAUAUCAGGAUAUGACUAGCUGCGGCUAGUCAGAAGGGAUGACAUGAGGAUCACCCAUGUGAUCUCGUGU [JR_Ex6_Sub028] (Eterna round: R97, puzzle: Exclusion 6)”, the “apparent KD of MS2 coat protein” value was determined as 487 nM (input ligand: FMN 200 uM) and 177 nM (input ligand: none).
On to “GCAAAGGUAGGAUAUCCACUGUGCAACAUGAGGAUCACCCAUGUGGUUCUUACCAUAAUUGGAGAAGGGCCGUGCA [Inrariri] (puzzle: Exclusion 5)”, for which the “apparent KD of MS2 coat protein” value under setting [2] was 19.7 nM, the “apparent KD of MS2 coat protein” value under setting [1] is 19.3 nM and the “apparent KD of MS2 coat protein” value under setting [3] was determined as 24.2 nM.
For the sequence “GCAAAUCAUGUAGGAUAUGCGUGGCGAAGCUAUGCAGAAGGACAUGAGGAUCACCCAUGUGCUUCCGUCUGCGUACAGACGGUA [Mat - Exclusion NG 1 - Mod of JL - D18] (Eterna round: R96, puzzle: Exclusion NG 1)”, the “apparent KD of MS2 coat protein” value is, setting by setting: (input ligand: FMN 200 uM) 93.5 nM; under setting [4], 73.4 nM; (input ligand: none) 91.3 nM.
With “GCAAGAAUAGGAUAUACACCAUGUCAGCUUCUAUACAACGCACAUGAGGAUCACCCAUGUAGAAGGGUUCUCUG [Exclusion-2-#10] (Eterna round: R97, puzzle: Exclusion 2)”, the “apparent KD of MS2 coat protein” value amounted to 358 nM (input ligand: FMN 200 uM) and 365 nM (input ligand: none).
For “GCAAGCGACUAGGCUCGUCUUAUAUUGAAAAGAUUGAAAACAUGAGGAUCACCCAUGUAUGUGGGAGAGUUGAAGUG [JR_SV3TOV2_Sub011] (puzzle: Sensor v3, turn-off variant 2)”, the “apparent KD of MS2 coat protein” value under setting [2] came to 286 nM, the “apparent KD of MS2 coat protein” value under setting [1] came out at 395 nM and the “apparent KD of MS2 coat protein” value under setting [3] was 310 nM.
For “GCAAGCUUAAUCUGUAUGAACAUGAGGAUCACCCAUGUAUAAGGUAAUUCUGUUGGGUUUUUUAUUGCUCGUCUUAU [JR_STOV1_Sub026] (Eterna round: R97, puzzle: Sensor, turn-off variant 1)”, the “apparent KD of MS2 coat protein” value (input ligand: FMN 200 uM) is 71.8 nM and the “apparent KD of MS2 coat protein” value (input ligand: none) turned out to be 76.9 nM.
The matching figures for “GCAAGCUUUUGCUCGUCUUACAUGAGGAUCACCCAUGUCGGGUUCGGUCGUCGCGGCUGGGCUUGCCGGGCGCCGGG [-28.7, -55.8 kcal, A 10%] (Eterna round: R97, puzzle: Sensor, turn-off variant 1)”: 215 nM and 244 nM.
The matching figures for “GCACAGGCAGGAUAUACAUGAGGAUCACCCAUGUGAUCCCUUAGGUACAAAAGUACAAGUAGAAGGGCCUGUGC [Omei Ex3 Model Bachelor's Dilema v45] (Eterna round: R97, puzzle: Exclusion 3)”: 146 nM and 1460 nM.
With “GCACGAAGUGUAGGAUAUCUGUGCGAUUAGCUCAGAGAAGGACACAUGAGGAUCACCCAUGUGUUCCGCGGAAGCAAUACGUGC [Eli exng1 - 057] (Eterna round: R96, puzzle: Exclusion NG 1)”, the “apparent KD of MS2 coat protein” value by setting is: (input ligand: FMN 200 uM) 10.7 nM; under setting [4], 9.73 nM; (input ligand: none) 13.3 nM.
The matching figures for “GCACGGAGUGUAGGAUAUCUGUGCGAUUAGCUCAGAGAAGGACACAUGAGGAUCACCCAUGUGUUCCACCGAAAGGUUCCGUGC [Eli exng1 - 048] (Eterna round: R96, puzzle: Exclusion NG 1)”: 11 nM, 8.4 nM and 11.4 nM.
For the sequence “GCACUGCGAGGAUAUACAUGAGGAUCACCCAUGUAUCGGUAGUCAAGGUUAAUUUAAGGUAGAAGGCGCGUAAA [JR_Ex3_Sub005] (Eterna round: R97, puzzle: Exclusion 3)”, the “apparent KD of MS2 coat protein” value (input ligand: FMN 200 uM) is 27.4 nM and the “apparent KD of MS2 coat protein” value (input ligand: none) came out at 23.5 nM.
Consider “GCAGCAACUCUAAUCAAUCCAACAUGAGGAUCACCCAUGUCUCAGGAUAUGGUCUGGAUUACAGGCCAGAAGGGAGAAAGCUGC [Eli exng3 - 046] (Eterna round: R96, puzzle: Exclusion NG 3)”, for which the “apparent KD of MS2 coat protein” value by setting is: (input ligand: FMN 200 uM) 9.07 nM; under setting [4], 7.62 nM; (input ligand: none) 11.9 nM.
For the sequence “GCAGCAACUCUCACUAACUAAACAUGAGGAUCACCCAUGUCUCAGGAUAUGGUCUGGAUUACAGGCCAGAAGGGAGAAAGCUGC [Eli exng3 - 040] (Eterna round: R96, puzzle: Exclusion NG 3)”, the “apparent KD of MS2 coat protein” value worked out at 9.73 nM (input ligand: FMN 200 uM), 10.6 nM under setting [4] and 13.1 nM (input ligand: none).
The matching figures for “GCAGCAACUCUUACUAACUAAACAUGAGGAUCACCCAUGUCUCAGGAUAUGGUCUGGAUUACAGGCCAGAAGGGAGAAAGCUGC [Eli exng3 - 038] (Eterna round: R96, puzzle: Exclusion NG 3)”: 15.6 nM, 11.2 nM and 16.9 nM.
The matching figures for “GCAGCAUAGAUUACUAGCUGUUACAUGAGGAUCACCCAUGUUCAGGAUAUGGUCUGGAUUACAGGCCAGAAGGGAACAAGCUGC [finally!] (Eterna round: R96, puzzle: Exclusion NG 3)”: 14.2 nM, 12.9 nM and 16.6 nM.
The matching figures for “GCAGCAUAGUGUAAUAACACAAUACAUGAGGAUCACCCAUGUGAGGAUAUGGACUGGAUUACAGUCCAGAAGGCACAAAGCUGC [Zipper Style 2] (Eterna round: R96, puzzle: Exclusion NG 3)”: 19.9 nM, 13.3 nM and 21.1 nM.
As to “GCAGCAUAGUUUACUAACUGUUACAUGAGGAUCACCCAUGUCUAGGAUAUGGUCUGGAUUACAGGCCAGAAGGAGAAAAGCUGC [Eli exng3 - 036] (Eterna round: R96, puzzle: Exclusion NG 3)”, the “apparent KD of MS2 coat protein” value runs as follows: (input ligand: FMN 200 uM) 15.3 nM; under setting [4], 13 nM; (input ligand: none) 16.8 nM.

(Values after the supplement of paper PMC9170038.)
